{"source": "the supplement of paper PMC9112550", "about": "“Optimization of the antimicrobial peptide Bac7 by deep mutational scanning” (BMC Biology, 2022);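 further: peptides expressed intracellularly from a pBAD plasmid library in pooled LB shake-flask culture, induced with 0.3% L-arabinose, DNA abundance read by NGS, three biological replicates, DESeq2 with apeglm shrinkage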", "data": [{"test_system": "Escherichia coli TOP10", "assay": "shrunken log2 fold change of peptide-encoding DNA abundance (4.5 h post-induction vs induction); higher = less antimicrobial activity (less host growth inhibition)", "settings": "time post-induction: 4.5 h; library: site-saturation at positions 5, 18, 19, 20", "values": [{"sequence": "RRIRDRPPRLPRPRPRPSVAPRP", "shrunken log2 fold change": 0.233}, {"sequence": "RRIRQRPPRLPRPRPRPAFAPRP", "shrunken log2 fold change": 0.344}, {"sequence": "RRIRYRPPRLPRPRPRPWVLPRP", "shrunken log2 fold change": -0.223}, {"sequence": "RRIRHRPPRLPRPRPRPEERPRP", "shrunken log2 fold change": -0.0858}, {"sequence": "RRIRPRPPRLPRPRPRPNGHPRP", "shrunken log2 fold change": -0.0534}, {"sequence": "RRIRCRPPRLPRPRPRPEGYPRP", "shrunken log2 fold change": 0.461}, {"sequence": "RRIRYRPPRLPRPRPRPLNDPRP", "shrunken log2 fold change": -0.0303}, {"sequence": "RRIRNRPPRLPRPRPRPPGTPRP", "shrunken log2 fold change": 0.241}, {"sequence": "RRIRDRPPRLPRPRPRPQPSPRP", "shrunken log2 fold change": 0.234}, {"sequence": "RRIRVRPPRLPRPRPRPLAWPRP", "shrunken log2 fold change": 0.0442}, {"sequence": "RRIRNRPPRLPRPRPRPYPEPRP", "shrunken log2 fold change": -1.11}, {"sequence": "RRIRCRPPRLPRPRPRPWATPRP", "shrunken log2 fold change": 0.00822}, {"sequence": "RRIRARPPRLPRPRPRPWTVPRP", "shrunken log2 fold change": -0.0846}, {"sequence": "RRIRSRPPRLPRPRPRPPSTPRP", "shrunken log2 fold change": 0.141}, {"sequence": "RRIRTRPPRLPRPRPRPFRDPRP", "shrunken log2 fold change": -0.205}, {"sequence": "RRIRERPPRLPRPRPRPNNNPRP", "shrunken log2 fold change": -0.977}, {"sequence": "RRIRLRPPRLPRPRPRPGVRPRP", "shrunken log2 fold change": 0.256}, {"sequence": "RRIRARPPRLPRPRPRPSGSPRP", "shrunken log2 fold change": 0.216}, {"sequence": "RRIRYRPPRLPRPRPRPMNIPRP", "shrunken log2 fold change": -0.124}, {"sequence": "RRIRYRPPRLPRPRPRPSKPPRP", "shrunken log2 fold change": -0.833}, {"sequence": "RRIRLRPPRLPRPRPRPMCRPRP", "shrunken log2 fold change": -0.0985}, {"sequence": "RRIRVRPPRLPRPRPRPEGDPRP", "shrunken log2 fold change": 0.297}, {"sequence": "RRIRARPPRLPRPRPRPGRSPRP", "shrunken log2 fold change": 0.206}, {"sequence": "RRIRARPPRLPRPRPRPHMTPRP", "shrunken log2 fold change": -0.0862}, {"sequence": "RRIRHRPPRLPRPRPRPYAYPRP", "shrunken log2 fold change": -0.596}, {"sequence": "RRIRHRPPRLPRPRPRPPYIPRP", "shrunken log2 fold change": -0.175}, {"sequence": "RRIRNRPPRLPRPRPRPMSHPRP", "shrunken log2 fold change": -0.249}, {"sequence": "RRIRSRPPRLPRPRPRPCEGPRP", "shrunken log2 fold change": -0.00992}, {"sequence": "RRIRSRPPRLPRPRPRPEEAPRP", "shrunken log2 fold change": 0.983}, {"sequence": "RRIRNRPPRLPRPRPRPLWMPRP", "shrunken log2 fold change": -0.587}, {"sequence": "RRIRVRPPRLPRPRPRPRQHPRP", "shrunken log2 fold change": 0.174}, {"sequence": "RRIRVRPPRLPRPRPRPAFAPRP", "shrunken log2 fold change": 0.666}, {"sequence": "RRIRCRPPRLPRPRPRPKFSPRP", "shrunken log2 fold change": -0.0966}, {"sequence": "RRIRMRPPRLPRPRPRPTESPRP", "shrunken log2 fold change": 0.0389}, {"sequence": "RRIRARPPRLPRPRPRPDCHPRP", "shrunken log2 fold change": 1.05}, {"sequence": "RRIRVRPPRLPRPRPRPGHTPRP", "shrunken log2 fold change": -0.000319}, {"sequence": "RRIRTRPPRLPRPRPRPQFAPRP", "shrunken log2 fold change": 0.0816}, {"sequence": "RRIRIRPPRLPRPRPRPALMPRP", "shrunken log2 fold change": -0.028}, {"sequence": "RRIRVRPPRLPRPRPRPYCWPRP", "shrunken log2 fold change": -0.0314}, {"sequence": "RRIRNRPPRLPRPRPRPQAVPRP", "shrunken log2 fold change": -0.0343}, {"sequence": "RRIRARPPRLPRPRPRPQIDPRP", "shrunken log2 fold change": 0.427}, {"sequence": "RRIRERPPRLPRPRPRPSVAPRP", "shrunken log2 fold change": 0.132}, {"sequence": "RRIRPRPPRLPRPRPRPENKPRP", "shrunken log2 fold change": -0.232}, {"sequence": "RRIRVRPPRLPRPRPRPVLAPRP", "shrunken log2 fold change": 0.239}, {"sequence": "RRIRIRPPRLPRPRPRPVKTPRP", "shrunken log2 fold change": -0.0343}, {"sequence": "RRIRCRPPRLPRPRPRPWVMPRP", "shrunken log2 fold change": -0.221}, {"sequence": "RRIRIRPPRLPRPRPRPIMKPRP", "shrunken log2 fold change": -0.227}, {"sequence": "RRIRERPPRLPRPRPRPPEIPRP", "shrunken log2 fold change": 0.115}, {"sequence": "RRIRYRPPRLPRPRPRPPQFPRP", "shrunken log2 fold change": -0.213}, {"sequence": "RRIRSRPPRLPRPRPRPMLTPRP", "shrunken log2 fold change": -0.0725}, {"sequence": "RRIRIRPPRLPRPRPRPWGQPRP", "shrunken log2 fold change": -0.00987}, {"sequence": "RRIRVRPPRLPRPRPRPHRAPRP", "shrunken log2 fold change": 0.101}, {"sequence": "RRIRFRPPRLPRPRPRPHAVPRP", "shrunken log2 fold change": -0.0464}, {"sequence": "RRIRCRPPRLPRPRPRPRCYPRP", "shrunken log2 fold change": -0.532}, {"sequence": "RRIRDRPPRLPRPRPRPCGAPRP", "shrunken log2 fold change": 0.838}, {"sequence": "RRIRCRPPRLPRPRPRPVRDPRP", "shrunken log2 fold change": 0.238}, {"sequence": "RRIRKRPPRLPRPRPRPVHYPRP", "shrunken log2 fold change": -0.0126}, {"sequence": "RRIRNRPPRLPRPRPRPYAYPRP", "shrunken log2 fold change": -0.533}, {"sequence": "RRIRNRPPRLPRPRPRPLMDPRP", "shrunken log2 fold change": 0.0545}, {"sequence": "RRIRRRPPRLPRPRPRPAQDPRP", "shrunken log2 fold change": 0.349}, {"sequence": "RRIRIRPPRLPRPRPRPYCMPRP", "shrunken log2 fold change": -1.34}, {"sequence": "RRIRGRPPRLPRPRPRPDPIPRP", "shrunken log2 fold change": 0.126}, {"sequence": "RRIRLRPPRLPRPRPRPIFQPRP", "shrunken log2 fold change": -0.192}, {"sequence": "RRIRMRPPRLPRPRPRPFLHPRP", "shrunken log2 fold change": -0.0137}, {"sequence": "RRIRIRPPRLPRPRPRPTATPRP", "shrunken log2 fold change": 0.0371}, {"sequence": "RRIRCRPPRLPRPRPRPATVPRP", "shrunken log2 fold change": 0.141}, {"sequence": "RRIRNRPPRLPRPRPRPIIVPRP", "shrunken log2 fold change": -0.286}, {"sequence": "RRIRGRPPRLPRPRPRPRNWPRP", "shrunken log2 fold change": 1.35}, {"sequence": "RRIRSRPPRLPRPRPRPWQFPRP", "shrunken log2 fold change": 0.0527}, {"sequence": "RRIRQRPPRLPRPRPRPSQTPRP", "shrunken log2 fold change": -0.083}, {"sequence": "RRIRTRPPRLPRPRPRPCSNPRP", "shrunken log2 fold change": -0.0243}, {"sequence": "RRIRRRPPRLPRPRPRPENYPRP", "shrunken log2 fold change": 0.0652}, {"sequence": "RRIRQRPPRLPRPRPRPDLMPRP", "shrunken log2 fold change": -0.08}, {"sequence": "RRIRLRPPRLPRPRPRPNPVPRP", "shrunken log2 fold change": 0.0363}, {"sequence": "RRIRKRPPRLPRPRPRPSCVPRP", "shrunken log2 fold change": 0.311}]}]}
